Experimental data reported in the nanobody polyreactivity screen of Harvey et al. (2022).

Assay: yeast display, Sf9 membrane polyspecificity reagent, FACS + sequencing; frameworks hold sequencing errors
Summary of the method: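 Genes from sorted yeast were amplified by colony PCR, read by MiSeq 2 × 250 sequencing and filtered on CDR length. These cells carried a synthetic nanobody library in Saccharomyces cerevisiae BJ5465 and were sorted by FACS into low and high (top ~1%) gates on anti-HA and streptavidin fluorescence. Polyreactivity is labelled according to the gate of origin.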

QVQLVESGGGLVQAGGSLRLSCAASGSTFHFYAMGWYRQAPGKERELVASITSRGGNTHYADSVKGRFTISRDNAKNTVYLQMNSLKPEDTAVYYCAARGGWYGTYDYWGQGTQVTVSS
polyreactivity (PSR sort gate): low polyreactivity

QVQLVESGGGLVQAGGSLRLSCAASGSTFHINAMGWYRQAPGKERELVADINWSGGSTYYADSVKGRFTISRDNAKNTVYLQMNSLKPEDTAVYYCAADVGVFTYSPYDAGEHDYWGQGTQVTVSS
polyreactivity (PSR sort gate): low polyreactivity

QVQLVESGGGLVQAGGSLRLSCAASGSTFHKNAMGWYRQAPGKERELVAGITKRGGSTYYADSVKGRFTISRDNAKNTVYLQMNSLKPEDTAVYYCNADFPVGRTEYDYWGQGTQVTVSS
polyreactivity (PSR sort gate): low polyreactivity

QVQLVESGGGLVQAGGSLRLSCAASGSTFHPYAMGWYRQAPGKERELVAAITWRVGSTYYADSVKGRFTISRDNAKNTVYLLINCLKPEDTAVYYCAVSYLSTLGRSRYDYWGQGTQVSVSS
polyreactivity (PSR sort gate): low polyreactivity

QVQLVESGGGLVQAGGSLRLSCAASGSTFHRNTLGWYRQAPGKERELVAGISLRGVRTYYADSVKGRFTISRDNAKNSVYLQMNSLKPEDTAVYYCAALYYYGYDYWGQGTQVTVSS
polyreactivity (PSR sort gate): high polyreactivity

QVQLVESGGGLVQAGGSLRLSCAASGSTFHRNTMGWYRQAPAKERALVAGISLRGVSTYYADSVKGRFTISRDNAKNTVYLQMNSLKPEDTAVYYCAAGGPYTRNFKLGYWGQGTQVTVSS
polyreactivity (PSR sort gate): high polyreactivity

QVQLVESGGGLVQAGGSLRLSCAASGSTFHRYAMGWYRQAPGKERELVAAISVRTGSTYYADSVKGRFTISRDNAKNTVYLQMNSLKPEDTAVYSCAVGKQINGKIYRYDYWGQGTQVTVSS
polyreactivity (PSR sort gate): high polyreactivity

QVQLVESGGGLVQAGGSLRLSCAASGSTFHRYAMGWYRQAPGKERELVARINGSGGSTYYADSVKGRFTISRDNSKNTVYLQMNSLIPEDTAVYYCAADGLYYTYGYDYWGQGTQVTVSS
polyreactivity (PSR sort gate): low polyreactivity

QVQLVESGGGLVQAGGSLRLSCAASGSTFHRYVMGWYRQAPGKERELVAVINSTGGSTYYADSVKGRFTISRDNAKNTVYLQMNSLKPEDTAVYYCARVTRRGPGYTTLYSRYDYWGQGTQVTVSS
polyreactivity (PSR sort gate): low polyreactivity

QVQLVESGGGLVQAGGSLRLSCAASGSTFHSYVMGWYRPAPGKERELVAAITSRGGSTNYADSFKGRFTISRDNAKNTVYLQLNSLKPEDTAVYYCAADVYLGWSYFRYDYWGQGTQVTVSS
polyreactivity (PSR sort gate): low polyreactivity

QVQLVESGGGLVQAGGSLRLSCAASGSTFHSYVMGWYRQAPGKERELVAAITSRGGSTNYADSVKGRFTISRDNAKNTVYLQMNSLKPEDTAVYYCAADGYWGWSYFRYDYWGQGTQVTVSS
polyreactivity (PSR sort gate): low polyreactivity

QVQLVESGGGLVQAGGSLRLSCAASGSTFHTYAMGWYRQAPGKERELVAGITGSGDSTFYADSVKGRFTISRDNAKNTVYLQMNSLKPEDTAVYYCAVESLRDVFEYDYWGQGTQVTVSS
polyreactivity (PSR sort gate): low polyreactivity

QVQLVESGGGLVQAGGSLRLSCAASGSTFHTYTMGWYRQAPGKERELVAGISRSGGSTYYADSVKGRFTISRDNAKNTVYLQMNSLKPEDTAVYYCNALSSKTDTYDYWGQGTQVTVSS
polyreactivity (PSR sort gate): high polyreactivity

QVQLVESGGGLVQAGGSLRLSCAASGSTFHWYDMGWYRPAPGKERELVAGINSSGDGTYYADSVKGRFTISRDNAKNTVYLQMNSLKPEDTAVYYCAAEYYTYWGYEDDYWGQGTQVTVSS
polyreactivity (PSR sort gate): low polyreactivity

QVQLVESGGGLVQAGGSLRLSCAASGSTFHYYAMGWYRQAPGKERELVATITRRGDSTYYADSVKGRFTISRDKAKNTVYLQMNSLKPEDTAVYYCATRYWRSGYDWPYGYWGQGTQVTVSS
polyreactivity (PSR sort gate): high polyreactivity

QVQLVESGGGLVQAGGSLRLSCAASGSTFIANDMGWYRQAPGKERELVAAISWSGGSTYADSVKGRFTISRDNAKNTVYLQMNSLKPEDTAVYYCAADWQVVWDYNYWGQGTQVTVSS
polyreactivity (PSR sort gate): low polyreactivity

QVQLVESGGGLVQAGGSLRLSCAASGSTFIAYAMGWYRQAPGKERELVAAITKSGGRTYYADSVKGRFTISRDNAKNTVYLQMNSLKPEDTAVYYCAKLVPVYSHPYAYDYWGQGTQVTVSS
polyreactivity (PSR sort gate): high polyreactivity

QVQLVESGGGLVQAGGSLRLSCAASGSTFIDYAMGWYRQAPGKDRELVAAITWSGSSTYYADSVKGRFTISRDNAKNTVDLQMNSLKPEDTAVYYCAARYWYQSYHTYGYYSWGQGTQVTVSS
polyreactivity (PSR sort gate): low polyreactivity

QVQLVESGGGLVQAGGSLRLSCAASGSTFIDYAMGWYRQAPGKERELVAAIDQGGGRTYYADSVKGRFTISRDNAKNTVYLQMNSLKPEDTAVYYCAATSRVVGEGGYEYWGQGTQVTVSS
polyreactivity (PSR sort gate): low polyreactivity

QVQLVESGGGLVQAGGSLRLSCAASGSTFIFNTMGWYRQAPGKERELVATITGSGGSTYYADSVKGRFTISRDNAKNTVYLQMNSLKPEDTAVYYCAAVGDQNEYDYWGQGTQVTVSS
polyreactivity (PSR sort gate): low polyreactivity

QVQLVESGGGLVQAGGSLRLSCAASGSTFIFNTMGWYRQAPGNERELVAAIRLSGGSTYYADSVKGRFTLSRDNAKYTVYLQMNSLKPEDTAVYYCARRLATRGHTYDYWGQGTQVTVSS
polyreactivity (PSR sort gate): low polyreactivity

QVQLVESGGGLVQAGGSLRLSCAASGSTFIFYAMGWYRQAPGKERELVAAISWSGGSTYYADSVKGRFTISRDNAKYTVYLQMNSLKPEDTAVYYCITLHRYSSERYDYWGQGTQVTVSS
polyreactivity (PSR sort gate): high polyreactivity
